This note sets out measurements from PMC13344369.

Series [1] addresses T1, IFN-γ (interferon gamma) (UniProt P01579 24-161). Kind of series: graphene-Nafion FET biosensor.
Series [2] deals with T1, IFN-γ (interferon gamma). Kind of series: graphene-Nafion FET biosensor. The source holds these as a separate data set.

Like-named read-outs stand apart in the source and are kept apart here.

T1 sequence (P01579 24-161): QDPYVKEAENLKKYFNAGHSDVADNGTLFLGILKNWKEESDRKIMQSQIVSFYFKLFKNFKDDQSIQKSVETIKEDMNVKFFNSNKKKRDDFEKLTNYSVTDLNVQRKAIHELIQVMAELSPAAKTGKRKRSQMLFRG

As a reminder, the Kd is a measure of binding affinity in units of concentration. For GGGGTTGTTTGTGTTGGGTGTTGTGT (ssDNA, 5'-NH2) [IFN-γ-specific aptamer], the Kd in the series with IFN-γ (interferon gamma) [1] came to 4.39 nM; with IFN-γ (interferon gamma) [2] it was 4.21 nM.
